Source: publication PMC3950343 (Genes & Development, 2014)

Target: the molecule itself
Experiment: SEC-MALS

B1: Rad50-HK^WT (mouse Rad50 hook domain fragment, amino acids 591-773) (domain or fragment, UniProt P70388 591-773, looked up)
chain: RDRLAKLNKELASAEQNKNHINNELKKKEEQLSSYEDKLFDVCGSQDLESDLGRLKEEIEKSSKQRAMLAGATAVYSQFITQLTDENQSCCPVCQRVFQTEAELQEVISDLQSKLRLAPDKLKSTESELKKKERRRDEMLGLVPVRQSIIDLKEKEIPELRNRLQSVNRDIQRLKNDIEEQET
- stoichiometry N: 2
